Experimental data published in patent US20250163168A1 (Pfizer, published 2025).
Square brackets hold non-standard residues; d marks the D form. Ends that are not written are not given here. * marks the point of attachment. Aib = CC(C)(N)C(=O)O; BrAc = O=C(CBr)*

T1: human GIPR (hGIPR), full length (human, UniProt P48546 22-466)
T1 sequence: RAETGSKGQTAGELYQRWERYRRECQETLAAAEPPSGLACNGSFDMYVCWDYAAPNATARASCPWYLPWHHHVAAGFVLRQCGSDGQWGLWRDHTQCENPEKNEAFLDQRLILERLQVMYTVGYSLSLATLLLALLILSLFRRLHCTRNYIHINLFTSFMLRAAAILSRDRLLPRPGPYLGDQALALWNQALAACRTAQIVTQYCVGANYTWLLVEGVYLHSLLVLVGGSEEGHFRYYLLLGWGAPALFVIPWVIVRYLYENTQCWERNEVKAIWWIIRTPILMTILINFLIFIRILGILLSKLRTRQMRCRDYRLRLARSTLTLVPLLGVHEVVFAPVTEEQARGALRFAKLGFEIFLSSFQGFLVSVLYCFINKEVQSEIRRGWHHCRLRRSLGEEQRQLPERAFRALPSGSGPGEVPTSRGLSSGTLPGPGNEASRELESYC

T2: Human GIPR ECD (GIPR extra cellular domain) (human)
T2 construct: The published benchmark structures (6dkj, 4hj0) used their own ECD constructs
T2 chain: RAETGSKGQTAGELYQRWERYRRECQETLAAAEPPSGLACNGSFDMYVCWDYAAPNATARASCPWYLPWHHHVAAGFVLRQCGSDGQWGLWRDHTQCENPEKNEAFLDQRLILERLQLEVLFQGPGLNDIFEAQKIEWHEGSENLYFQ


Legend:
human GLP1R = human GLP1R (human, UniProt P43220 24-463); test: cell-based or functional assay
[1] = target: T1, human GIPR (hGIPR), full length; test: cell-based or functional assay
[2] = target: T2, Human GIPR ECD (GIPR extra cellular …); test: SPR (Biacore 8K, 37 C); antibody captured on anti-human IgG, human GIPR ECD as analyte; 1:1 model

Chain of human GLP1R (P43220 24-463): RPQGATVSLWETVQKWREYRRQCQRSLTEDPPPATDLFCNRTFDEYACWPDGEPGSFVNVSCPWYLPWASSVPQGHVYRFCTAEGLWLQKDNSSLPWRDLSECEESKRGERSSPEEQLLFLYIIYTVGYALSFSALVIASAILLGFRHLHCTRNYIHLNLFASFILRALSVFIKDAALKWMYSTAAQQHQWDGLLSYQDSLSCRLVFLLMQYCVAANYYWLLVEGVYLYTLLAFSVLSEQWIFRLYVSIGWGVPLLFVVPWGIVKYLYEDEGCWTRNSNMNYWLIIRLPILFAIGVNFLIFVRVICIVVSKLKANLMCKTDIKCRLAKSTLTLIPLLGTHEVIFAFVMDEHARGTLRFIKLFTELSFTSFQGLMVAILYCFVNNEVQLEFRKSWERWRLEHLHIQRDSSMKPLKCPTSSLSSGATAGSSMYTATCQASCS

Row | Binder | cAMP assay, GLP1R agonist mode, Emax (%) (human GLP1R) | cAMP assay, GLP1R agonist mode, EC50 (pM) (human GLP1R) | Human GIPR-CHO cAMP Antagonist Activity IC50 [1] [nM] | Kd [2] [nM] | koff [2] [s⁻¹] | kon [2] [M⁻¹ s⁻¹]
1 | H-H[Aib]EGTFTSDVSSYLE[Aib]QAAKEFIAWLVKGRGGGGGSGGGGSGGGGSK(BrAc) (not fully specified (C-terminus)) [SEQ ID NO 150: GLP1(7-37) [Aib8; Aib22] with GGGGS(x3)-K(BrAc) linker] | 104 | – | – | – | – | –
2 | H-H[Aib]EGTFTSDYSSYLE[Aib]QAAKEFIAWLVKGRGGGGGSGGGGSGGGGSK(BrAc) (not fully specified (C-terminus)) [SEQ ID NO 152: GLP1(7-37) [Aib8; Tyr16; Aib22] with GGGGS(x3)-K(BrAc) linker] | 107 | 2.1 | – | – | – | –
3 | H[Aib]EGTFTSDYSSYLEEQAAKEFIAWLVKGRGGGGGSGGGGSGGGGSK(BrAc) (not fully specified (C-terminus)) [SEQ ID NO 151: GLP1(7-37) [Aib8; Tyr16; Glu22] with GGGGS(x3)-K(BrAc) linker] | 109 | 3.5 | – | – | – | –
4 | anti-GIPR antibody GIPR-2767 (antibody, human IgG1, kappa, also called GIPR-27676; GIPR-2676) heavy: EVQLVESGGGLVKPGGSLRLSCAASGFPFSSAWMSWVRQAPGKGLEWVGRIKSKADAGTTDYGAPVKGRFTISRDDSKNTLYLQMNSLKTEDTAVYYCTTEDIVGVPFKGYYQYMDAWGKGTTVTVSSASTKGPSVFPLAPSSKSTSGGTAALGCLVKDYFPEPVTVSWNSGALTSGVHTFPAVLQSSGLYSLSSVVTVPSSSLGTQTYICNVNHKPSNTKVDKKVEPKSCDKTHTCPPCPAPEAAGAPSVFLFPPKPKDTLMISRTPEVTCVVVDVSHEDPEVKFNWYVDGVEVHNAKTKPREEQYNSTYRVVSVLTVLHQDWLNGKEYKCKVSNKALPAPIEKTISKAKGQPREPQVYTLPPSREEMTKNQVSLTCLVKGFYPSDIAVEWESNGQPENNYKTTPPVLDSDGSFFLYSKLTVDKSRWQQGNVFSCSVMHEALHNHYTQKSLSLSPGK light: not shown | – | – | 28 | 1.91 | 0.0013 | 684000
5 | H-H[Aib]EGTFTSDVSSYLEEQAAKEFIAWLVKGGGGGGGSGGGGSGGGGSK(BrAc) (not fully specified (C-terminus)) [SEQ ID NO 153 (Benchmark): GLP1(7-37) [Aib8; Glu22; Gly36] with GGGGS(x3)-K(BrAc) linker] | 109 | 15 | – | – | – | –
